This series deals with the molecule itself. As to the kind of experiment: cryo-EM structure; single-particle cryo-EM of purified TolQR complex at 7.5 mg/mL in SEC buffer (50 mM Tris/HCl pH 7.5, 300 mM NaCl, 2 mM EDTA, 0.01% LMNG); rigid-body refinement of a published model.

This note sets out measurements from article PMC10666116, “Tunable force transduction through the Escherichia coli cell envelope” (Proceedings of the National Academy of Sciences of the …, 2023).

By stoichiometry N is commonly meant the number of molecules, sites or subunits per partner or assembly.

B1: TolQ (natural protein, E. coli, UniProt P0ABU9 1-230, looked up)
chain: MTDMNILDLFLKASLLVKLIMLILIGFSIASWAIIIQRTRILNAAAREAEAFEDKFWSGIELSRLYQESQGKRDNLTGSEQIFYSGFKEFVRLHRANSHAPEAVVEGASRAMRISMNRELENLETHIPFLGTVGSISPYIGLFGTVWGIMHAFIALGAVKQATLQMVAPGIAEALIATAIGLFAAIPAVMAYNRLNQRVNKLELNYDNFMEEFTAILHRQAFTVSESNKG
notes: TolQ, E. coli, inner-membrane motor protein of the Tol system; expressed from pCEP13 (pT12-tolQ-tolR); Pentamer in the TolQR complex; also called TolQ pentamer; motor subunit of TolQR
With B1, the “stoichiometry N” value came to 5.
